Reference: patent publication US20230135471A1, “UBIQUITIN VARIANTS WITH IMPROVED AFFINITY FOR 53BP1” (Integrated DNA Technologies, Inc., priority 2021, published 2023)

Each substance was assayed against 53BP1 fragment (a.a. 1221-1718) fused to an adenylate cyclase fragment (two-hybrid) (UniProt Q12888) (assay: cell-based or functional assay).

Row | Substance | Experiment 1 Average Enrichment | Experiment 1 Rep 1 Enrichment | Experiment 1 Rep 2 Enrichment | Experiment 2 Average Enrichment | Experiment 2 Rep 1 Enrichment | Experiment 2 Rep 2 Enrichment | Percent GFP Positive Rep 1 | Percent GFP Positive Rep 2 | Percent GFP Positive Rep 3
1 | i53 + K48V two-hybrid fusion (designed binder) | 0.54 log2 | 0.59 log2 | 0.48 log2 | 0.34 log2 | 0.23 log2 | 0.46 log2 |  |  | 
2 | i53 + D32E two-hybrid fusion (designed binder) | 0.21 log2 | 0.41 log2 | 0 log2 | -0.19 log2 | -0.11 log2 | -0.28 log2 |  |  | 
3 | i53 + T9V two-hybrid fusion (designed binder) | 0.06 log2 | 0.32 log2 | -0.21 log2 | -0.15 log2 | -0.36 log2 | 0.06 log2 |  |  | 
4 | i53 + E18T two-hybrid fusion (designed binder) | -0.27 log2 | -0.33 log2 | -0.21 log2 | 0.28 log2 | 0.23 log2 | 0.34 log2 |  |  | 
5 | i53 + E18L two-hybrid fusion (designed binder) | 0.75 log2 | 0.75 log2 | 0.76 log2 | 0.66 log2 | 0.62 log2 | 0.71 log2 |  |  | 
6 | i53 + Q31L two-hybrid fusion (designed binder) | 0.41 log2 | 0.71 log2 | 0.11 log2 | -0.15 log2 | -0.23 log2 | -0.06 log2 |  |  | 
7 | i53 + R42N two-hybrid fusion (designed binder) | 1.12 log2 | 1.18 log2 | 1.05 log2 | 1.01 log2 | 1.34 log2 | 0.68 log2 |  |  | 
8 | i53 + R54F two-hybrid fusion (designed binder) | 0.76 log2 | 1.01 log2 | 0.52 log2 | 0.55 log2 | 0.66 log2 | 0.43 log2 |  |  | 
9 | i53 + S49L two-hybrid fusion (designed binder) | 1 log2 | 0.85 log2 | 1.15 log2 | 0.88 log2 | 0.97 log2 | 0.8 log2 | 18.8% | 13.6% | 17.7%
10 | i53 + N60E two-hybrid fusion (designed binder) | 0.66 log2 | 0.9 log2 | 0.43 log2 | 0.25 log2 | 0.13 log2 | 0.38 log2 |  |  | 
11 | i53 + R54N two-hybrid fusion (designed binder) | 0.19 log2 | -0.26 log2 | 0.65 log2 | 0.01 log2 | 0.03 log2 | -0.01 log2 |  |  | 
12 | i53 + K33M two-hybrid fusion (designed binder) | 2.34 log2 | 2.3 log2 | 2.37 log2 | 1.06 log2 | 1.51 log2 | 0.61 log2 |  |  | 
13 | i53 + K33Y two-hybrid fusion (designed binder) | 1.02 log2 | 0.63 log2 | 1.41 log2 | 0.98 log2 | 1.03 log2 | 0.94 log2 |  |  | 
14 | i53 + Q41C two-hybrid fusion (designed binder) | 0.18 log2 | 0.22 log2 | 0.13 log2 | -0.03 log2 | -0.05 log2 | 0 log2 |  |  | 
15 | i53 + E18F two-hybrid fusion (designed binder) | 0.51 log2 | 0.09 log2 | 0.93 log2 | 0.54 log2 | 0.22 log2 | 0.87 log2 |  |  | 
16 | i53 + R74V two-hybrid fusion (designed binder) | 1.51 log2 | 1.58 log2 | 1.44 log2 | 0.95 log2 | 1.19 log2 | 0.7 log2 |  |  | 
17 | i53 + S57K two-hybrid fusion (designed binder) | -0.4 log2 | -0.22 log2 | -0.58 log2 | 0.15 log2 | -0.07 log2 | 0.36 log2 |  |  | 
18 | i53 + L67C two-hybrid fusion (designed binder) | 0.04 log2 | -0.31 log2 | 0.39 log2 | 0.73 log2 | 0.96 log2 | 0.5 log2 |  |  | 

Row | Substance | Experiment 1 Average Enrichment | Experiment 1 Rep 1 Enrichment | Experiment 1 Rep 2 Enrichment | Experiment 2 Average Enrichment | Experiment 2 Rep 1 Enrichment | Experiment 2 Rep 2 Enrichment | Percent GFP Positive Rep 1 | Percent GFP Positive Rep 2 | Percent GFP Positive Rep 3
19 | i53 + L67T two-hybrid fusion (designed binder) | 0.09 log2 | 0.69 log2 | -0.52 log2 | 0.11 log2 | -0.3 log2 | 0.52 log2 |  |  | 
20 | i53 + R74T two-hybrid fusion (designed binder) | 0.33 log2 | 0.4 log2 | 0.26 log2 | 0.31 log2 | 0.25 log2 | 0.38 log2 |  |  | 
21 | i53 + R74I two-hybrid fusion (designed binder) | 0.83 log2 | 0.84 log2 | 0.83 log2 | 0.61 log2 | 0.63 log2 | 0.58 log2 |  |  | 
22 | i53 + D39L two-hybrid fusion (designed binder) | 0.06 log2 | 0.49 log2 | -0.38 log2 | -2.16 log2 | -2.9 log2 | -1.42 log2 |  |  | 
23 | i53 + K66R two-hybrid fusion (designed binder) | -0.69 log2 | -0.84 log2 | -0.54 log2 | 0.55 log2 | 0.13 log2 | 0.97 log2 |  |  | 
24 | i53 + P38W two-hybrid fusion (designed binder) | 0.6 log2 | 0.61 log2 | 0.6 log2 | -0.59 log2 | -0.87 log2 | -0.32 log2 |  |  | 
25 | i53 + E18S two-hybrid fusion (designed binder) | 0.48 log2 | 0.47 log2 | 0.49 log2 | 0.33 log2 | -0.01 log2 | 0.67 log2 |  |  | 
26 | i53 + K48Q two-hybrid fusion (designed binder) | 0.55 log2 | 0.59 log2 | 0.51 log2 | 0.34 log2 | 0.2 log2 | 0.47 log2 |  |  | 
27 | i53 + N25D two-hybrid fusion (designed binder) | 0.33 log2 | 0.11 log2 | 0.54 log2 | 0.45 log2 | 0.49 log2 | 0.41 log2 |  |  | 
28 | i53 + D39G two-hybrid fusion (designed binder) | -0.21 log2 | -0.2 log2 | -0.22 log2 | 0.06 log2 | 0.6 log2 | -0.49 log2 |  |  | 
29 | i53 + K48I two-hybrid fusion (designed binder) | 0.64 log2 | 0.5 log2 | 0.77 log2 | 0.42 log2 | 0.35 log2 | 0.49 log2 |  |  | 
30 | i53 + P38H two-hybrid fusion (designed binder) | 0.26 log2 | 0.87 log2 | -0.35 log2 | 0.58 log2 | 0.33 log2 | 0.83 log2 |  |  | 
31 | i53 + S65Q two-hybrid fusion (designed binder) | 0 log2 | -0.02 log2 | 0.02 log2 | 0.12 log2 | 0.01 log2 | 0.24 log2 |  |  | 
32 | i53 + E16H two-hybrid fusion (designed binder) | 0.03 log2 | 0 log2 | 0.05 log2 | -0.13 log2 | -0.21 log2 | -0.05 log2 |  |  | 
33 | i53 + H68Q two-hybrid fusion (designed binder) | 0.07 log2 | 0.44 log2 | -0.3 log2 | -0.5 log2 | -0.62 log2 | -0.38 log2 |  |  | 
34 | i53 + S49G two-hybrid fusion (designed binder) | 0.02 log2 | 0.27 log2 | -0.23 log2 | -0.31 log2 | -0.57 log2 | -0.05 log2 |  |  | 
35 | i53 + T7V two-hybrid fusion (designed binder) | 0.33 log2 | 0.24 log2 | 0.42 log2 | 0.02 log2 | -0.04 log2 | 0.09 log2 |  |  | 
36 | i53 + P38M two-hybrid fusion (designed binder) | -0.31 log2 | -2.07 log2 | 1.45 log2 | 1.25 log2 | 1.37 log2 | 1.13 log2 |  |  | 
